Each block holds one substance with its values, some of them ahead of it.
What was measured:
[1] = molecular target: human recombinant soluble RAGE/flag fusion protein (human); assay: excess lactoferrin against 125I-AGE-BSA binding to immobilized RAGE, Exp. 2; the filing leaves open whether lactoferrin acts through RAGE or AGE
[2] = molecular target: human recombinant soluble RAGE/flag fusion protein (human); assay: excess native BSA against 125I-AGE-BSA binding to immobilized RAGE, Exp. 2
[3] = molecular target: human recombinant soluble RAGE/flag fusion protein (human); assay: excess native BSA against 125I-AGE-BSA binding to immobilized RAGE, Exp. 3
[4] = molecular target: AGE-BSA (bovine) (UniProt P02769); assay: excess free RAGE/DCC chimera against 125I-AGE-BSA binding to immobilized RAGE, Exp. 1

% Binding [1]: 50%
Substance: lactoferrin (ligand)

% Binding [2]: > 100%
% Binding [3]: > 100%
Substance: native BSA (from UniProt P02769)

% Binding [4]: 40%
Substance: recombinant soluble RAGE/DCC chimeric protein (receptor)
